Where no end group is shown, it is not given here. [ ]: non-standard residue; d: D form. pS = N[C@@H](COP(=O)(O)O)C(=O)O
B1: TEX264 peptide (residues 269-278) with S272 phosphorylation (p-S272) (peptide)
peptide: SGS[pS]FEELDL
notes: also called p-Ser272; source: synthetic peptide, bought: GenScript; passed over Superdex peptide
B2: phosphomimetic TEX264^(S271D, S272D) peptide (2SD-LIR) (peptide, UniProt Q9Y6I9 269-278, looked up)
peptide: SGDDFEELDL
notes: also called 2D-LIR; source: synthetic peptide, bought: GenScript; passed over Superdex peptide
B3: phosphomimetic TEX264^(S269D, S271D, S272D) peptide (3SD-LIR) (peptide, UniProt Q9Y6I9 269-278, looked up)
peptide: DGDDFEELDL
notes: also called 3D-LIR; source: synthetic peptide, bought: GenScript; passed over Superdex peptide
B4: TEX264 LIR peptide (residues 266-278) with S266 phosphorylation (p-S266) (peptide)
peptide: [pS]GASGSSFEELDL
notes: source: synthetic peptide, bought: GenScript; passed over Superdex peptide
B5: phosphomimetic TEX264^(S271, 272E) peptide (2SE-LIR) (peptide, UniProt Q9Y6I9 269-278, looked up)
peptide: SGEEFEELDL
notes: also called 2E-LIR; source: synthetic peptide, bought: GenScript; passed over Superdex peptide
B6: phosphomimetic TEX264^(S269E, S271E, S272E) peptide (3SE-LIR) (peptide, UniProt Q9Y6I9 269-278, looked up)
peptide: EGEEFEELDL
notes: also called 3E-LIR; source: synthetic peptide, bought: GenScript; passed over Superdex peptide

The binders below were run against Human LC3B (residues 1-120) (human, UniProt Q9GZQ8 1-120) (assay: ITC; Microcal iTC200, 25°C; TEX264 peptides 0.5 mM in the syringe, LC3B or GABARAP in the cell at 10-times lower concentration; single-site binding model). Conditions: both partners purified.
For B1, the “fold enhancement of affinity over the unphosphorylated peptide” value was 37 fold.
B2: binds.
B3: binds.
In the case of B4, the “fold enhancement of affinity over the unphosphorylated peptide” value is reported as 1.8 fold.
B5: binds.
B6: binds.

The binders below were run against T1, Human GABARAP (residues 1-116) (human, UniProt O95166 1-116) in the same assay as above. Conditions: both partners purified.
T1 construct: GABARAP, human, residues 1-116; source: prepared as described previously (Mochida et al., 2020), purified
T1 sequence (O95166 1-116): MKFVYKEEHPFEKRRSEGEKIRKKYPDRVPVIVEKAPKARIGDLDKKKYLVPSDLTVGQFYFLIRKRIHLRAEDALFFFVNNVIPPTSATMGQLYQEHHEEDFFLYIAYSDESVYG
With B1 the “fold enhancement of affinity over the unphosphorylated peptide” value was 23 fold.
With B2 the “fold enhancement of affinity over the unmodified peptide” value was ~20 fold.
For B3, the “fold enhancement of affinity over the unmodified peptide” value was ~20 fold.
For B4, the “fold enhancement of affinity over the unphosphorylated peptide” value was 6.5 fold.
In the case of B5, the “fold enhancement of affinity over the unmodified peptide” value is reported as ~20 fold.
In the case of B6, the “fold enhancement of affinity over the unmodified peptide” value is reported as ~20 fold.

Reference: article doi:10.1101/2022.02.11.480038, “Phosphorylation by casein kinase 2 ensures ER-phagy receptor TEX264 binding to ATG8 proteins” (bioRxiv, 2022)
